Patent US20190276542A1 (QILU PUGET SOUND BIOTHERAPEUTICS, published 2019)
Changes are numbered by the printed parent chain.

B1: anti-hPD1 antibody #6 (antibody, human IgG4, V domains shown)
VH: QVQLVQSGAEVKKPGASVKVSCKASGYTFTNYWIHWVRQAPGQGLEWMGEIDPYDSYTNYNQKFKGRVTMTGDTSTSTVYMELSSLTSEDTAVYYCARPGYTYGGMDFWGQGTLVTVSS
VL: DIQMTQSPSSLSASVGDRVTITCRSSQSLFNSGNQKNYLAWYQQKPGKPPKLLIYGASTRESGVPARFSGSGSGTDFTLTISSLQPEDVATYYCQNDHYYPYTFGGGTKVEIK
notes: also called Anti-hPD1 #6; Anti-PD1 #6
B2: anti-hPD1 antibody #3 (antibody, human IgG4, V domains shown)
VH: B1 VH with G26S, I34M, G72I, Y101F
VL: B1 VL with R24K, P49V, P86A
notes: also called Anti-hPD1 #3; Anti-PD1 #3
B3: anti-hPD1 antibody #5 (antibody, human IgG4, V domains shown)
VH: B1 VH with I34M, Y54F, G72R, T74K, T87R, Y101F
VL: B1 VL with F30L, P49L, E61D, A66S, P86A
notes: also called Anti-hPD1 #5; Anti-PD1 #5
B4: anti-hPD1 antibody #9 (antibody, human IgG4, V domains shown)
VH: B1 VH with N31S, I34M, G72I, T74K, Y101F
VL: DIVMTQSPDSLAVSLGERATINCRSSQSLLISGNQKNYLAWYQQKPGQPPKLLIYGASTRDSGVPDRFSGSGSGTDFTLTISSLQAEDVAVYYCQNNHYYPYTFGGGTKVEIK
notes: also called Anti-hPD1 #9; Anti-PD1 #9
B5: anti-hPD1 antibody #14 (antibody, human IgG4, V domains shown)
VH: B1 VH with T74K
VL: B1 VL with R24K, P49L, E61D, A66S
notes: also called Anti-hPD1 #14; Anti-PD1 #14
B6: anti-hPD1 antibody #2 (antibody, human IgG4, V domains shown)
VH: B1 VH with N31S, I34M, G72V, T74K, T87R, Y101N, F108Y
VL: B1 VL with P49V, E61D, A66Y
notes: also called Anti-hPD1 #2; Anti-PD1 #2
B7: anti-hCTLA4 antibody 2F1 (antibody, human IgG1, V domains shown)
VH: QVQLVESGGGVVEPGRSLRLSCAASGFTFSSYGMHWVRQAPGKGLEWVAVIWYHRSEKDYADSAKGRFTISRDNSKNTLYLQMNSLRAEDTAVYYCARAGLLGYFDYWGQGTLVTVSS
VL: EIVLTQSPGTLSLSPGERATLSCRASQSINSYLAWYQQKPGQAPRPLIYGVSSRATGIPDRFSGSGSGTDFTLTISRLEPEDFAVYYCQQYGMYPFTFGPGTKVDIK
B8: anti-hCTLA4 antibody 7A4 (antibody, human IgG1, V domains shown)
VH: B7 VH with A23T, H54Q, R55T
VL: B7 VL with I29V, N30S
B9: anti-hCTLA4 antibody 9C4 (antibody, human IgG1, V domains shown)
VH: B7 VH with H54K, R55S
VL: B7 VL with I29L, M93I
B10: anti-hCTLA4 antibody 6E3 (antibody, human IgG1, V domains shown)
VH: B7 VH with H54K, R55T
VL: B7 VL with I29V, N30T, Y94S
B11: anti-hCTLA4 antibody 3G1 (antibody, human IgG1, V domains shown)
VH: B7 VH with A23T, H54K, R55S, D59Y, A99G
VL: B7 VL
B12: anti-hCTLA4 antibody 1E1 (antibody, human IgG1, V domains shown)
VH: B7 VH with H54N, R55P
VL: B7 VL with N30S, Y94S
B13: anti-hCTLA4 antibody 5B2 (antibody, human IgG1, V domains shown)
VH: B7 VH with A23T, H54K, R55S
VL: B7 VL with I29L, N30S, P46L
B14: anti-hCTLA4 antibody 4H1 (antibody, human IgG1, V domains shown)
VH: B7 VH with A23T, H54N, R55P, E57K, A99G, L102F
VL: B7 VL with I29V, N30S
B15: anti-hCTLA4 antibody 12G4 (antibody, human IgG1, V domains shown)
VH: B7 VH with H54N, R55T, E57K, A99G
VL: B7 VL with N30T, M93R
B16: anti-hCTLA4 antibody 8B4 (antibody, human IgG1, V domains shown)
VH: B7 VH with H54Q, R55P, L101F
VL: B7 VL with I29V

Legend:
[1] = biological target: T1, human PD1 expressed on a cell surface (human, UniProt Q15116 25-288); assay: flow cytometry on OKT3-activated human T cells, CD4+ cells
T1 construct: whole, on cells; also called hPD1
Method: (§1) The following experiment tested whether the selected anti-hPD1 antibodies can bind to native PD1 expressed on the surface of activated T cells. Human PBMCs were pre-activated with OKT3 (an anti-CD3 antibody) at a concentration of 1 μg/ml. After three days, the PBMCs, which were mostly activated T cells at this time, were distributed into a 96 well microtiter plate using 0.1×10⁶ cells/well. […] The antibody bound to CD4⁺ T cells and CD4⁻ T cells (which were predominately CD8⁺ T cells) was detected using anti-hlgG-FITC and an anti-CD4 antibody labeled with allophycocyanin (anti-CD4-APC).
(§2) The samples were analyzed by flow cytometry (FACScalibur, BD), and binding was reported as an MFI. EC₅₀'s for binding were calculated using GraphPad Prism software.

[2] = biological target: T1, human PD1 expressed on a cell surface; assay: flow cytometry on OKT3-activated human T cells, CD4- cells
Method: as §1, §2

[3] = biological target: T1, human PD1 expressed on a cell surface; assay: cell-based or functional assay
[4] = biological target: T2, recombinant human (rhu) PD1 (extracellular domain only) (human, UniProt Q15116 25-170); assay: SPR (Biacore 3000), antibody captured by anti-human IgG, PD1 as analyte
T2 construct: extracellular domain; also called recombinant human PD1
Method: Biosensor analysis was conducted at 25° C. in an HBS-EP buffer (10 mM HEPES, 150 mM NaCl, 3 mM EDTA, 0.005% polysorbate 20, 0.1% bovine serum albumin, pH 7.4) using a Biacore 3000 optical biosensor equipped with a CM5 sensor chip according to the manufacturer's general protocol. The auto sampler was maintained at ambient temperature. […] About 8000 resonance units (RU) of this antibody was immobilized on these chips. Flow cell 4 was used to analyze captured anti-hPD1 antibodies (about 100 to 200 RU were captured on flow cell 4), while flow cell 3 was used as the reference flow cell. Both analytes, recombinant human PD1 and recombinant cynomolgus PD1, were prepared in five concentrations for each antibody tested. The analyte concentrations tested ranged from 1.2 to 300 nM. All analyte dilutions were prepared in HPS-EP buffer. Each of the five analyte sample concentrations were run in duplicate and in a mixed order, as a means of assessing the reproducibility of binding and mitigating systematic bias to the order of injection. Multiple blank (running buffer) injections also were run and used to assess and subtract system artifacts. The association phase and dissociation phase for all analyte concentrations were monitored for 300 seconds and 1500 seconds, respectively, at a flow rate of 50 μL/min. Between antibody samples the surface of the flow cell was regenerated with 10 mM glycine, pH 1.5 for 30 seconds at a flow rate of 50 μL/min.
The data was aligned, double referenced, and fit using SCRUBBER 2™ software (BioLogic Software, Pty, Australia), which is a Surface Plasmon Resonance (SPR) data processing and non-linear least squares regression fitting program.

[5] = biological target: T1, human PD1 expressed on a cell surface; assay: cell-based or functional assay; remark: listed apart in the source
[6] = biological target: T3, soluble, biotinylated PD1 protein containing only the extracellular region (human, UniProt Q15116 25-170, biotinylated in vivo (site not stated)); assay: …; inhibition of GST-hPDL1 binding to biotinylated hPD1
T3 construct: extracellular domain; also called biotinylated hPD1
Method: Finally, 10 μL of streptavidin donor beads (which can bind the biotinylated hPD1) were added to bring the final concentration of donor beads to 16 μg/mL, and the plates were incubated in the dark at RT for one hour. […] An antibody that inhibits this interaction or binding will decrease the signal, since the inhibiting antibody prevents physical proximity of the donor and acceptor beads.
Plates were read in an EnVision 2103 Multilabel Reader (PerkinElmer) using illumination at a wavelength of 680 nm and reading emission at a wavelength of about […]. The results were plotted and IC₅₀ values were calculated using GraphPad Prism software.

[7] = biological target: T4, human CTLA4 expressed on Jurkat T cells (human, UniProt P16410 36-223); assay: cell-based or functional assay
[8] = biological target: T5, CTLA4-ECD_Fc, soluble hCTLA4 comprising the extracellular domain of hCTLA4 fused to an Fc fragment (human, UniProt P16410 36-161); assay: flow cytometry; inhibition of CTLA4-ECD_Fc binding to Raji cells (hB7-1/hB7-2)
T5 construct: extracellular domain; not shown: Fc fragment
Method: In a first assay, inhibition of hCTLA4 binding to hB7-1 and hB7-2 expressed on the surface of Raji cells was assessed. Raji cells, which are human cells, express high levels of hB7-1 and hB7-2. […] After 30 minutes, 1×10⁵ Raji cells were added to each well and incubated for another 30 minutes. […] IC₅₀'s were calculated using GraphPad Prism software (GraphPad, Inc., La Jolla, Calif., USA).

[9] = biological target: T4, human CTLA4 expressed on Jurkat T cells; assay: flow cytometry on Jurkat T cells expressing hCTLA4
Source text: After washing, the surface-bound anti-hCTLA4 antibodies were detected with a polyclonal anti-hlgG (Fc-specific) antibody labeled with fluorescein isothiocyanate (FITC)(anti-hlgG-FITC). Binding of anti-hCTLA4 antibodies were detected by flow cytometric analysis. The results were reported a geometric mean fluorescence intensity (MFI) using FlowJo software (FLOWJO, L.L.C., Ashland, Oreg., USA).

T2 sequence (Q15116 25-170): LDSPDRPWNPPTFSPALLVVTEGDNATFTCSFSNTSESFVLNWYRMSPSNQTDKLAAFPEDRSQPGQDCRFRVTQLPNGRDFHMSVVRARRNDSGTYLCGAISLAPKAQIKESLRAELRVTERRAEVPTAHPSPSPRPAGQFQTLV
T5 sequence (P16410 36-161): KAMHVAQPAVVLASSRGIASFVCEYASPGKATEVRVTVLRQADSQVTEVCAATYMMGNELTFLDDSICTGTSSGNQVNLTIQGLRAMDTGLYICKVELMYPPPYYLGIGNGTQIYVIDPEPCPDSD
T1 sequence (Q15116 25-288): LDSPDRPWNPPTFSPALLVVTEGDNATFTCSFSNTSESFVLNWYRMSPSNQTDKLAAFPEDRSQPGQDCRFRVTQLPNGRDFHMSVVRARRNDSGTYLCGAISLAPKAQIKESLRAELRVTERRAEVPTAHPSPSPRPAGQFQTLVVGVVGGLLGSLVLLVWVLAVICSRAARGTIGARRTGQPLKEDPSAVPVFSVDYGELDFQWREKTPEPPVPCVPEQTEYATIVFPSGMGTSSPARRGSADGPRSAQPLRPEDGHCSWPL
T4 sequence (P16410 36-223): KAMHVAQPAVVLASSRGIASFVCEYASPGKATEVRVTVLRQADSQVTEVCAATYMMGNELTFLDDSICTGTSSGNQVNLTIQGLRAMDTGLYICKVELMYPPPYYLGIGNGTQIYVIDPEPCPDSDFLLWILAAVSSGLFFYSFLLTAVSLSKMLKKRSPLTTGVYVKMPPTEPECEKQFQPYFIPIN
T3 sequence (Q15116 25-170): as the sequence (Q15116 25-170) above

Binder	EC50 [1] [nM]	EC50 [2] [nM]	IC50, luciferase (RLU), PD1 dual cell reporter assay (Jurkat cells with hPD1 plus CHO-K1 cells with hPDL1) [3] [nM]	IC50, luciferase (RLU), CTLA4 Dual-Cell Reporter Assay (Jurkat cells with hCTLA4 plus Raji cells) [7] [nM]	IC50 [8] [nM]	EC50 [9] [nM]	also measured
B1	0.667	0.617	3.85	–	–	–	–
B2	0.536	0.69	2.37	–	–	–	Kd [4]: 5.16 nM; koff [4]: 0.000348 s⁻¹; kon [4]: 67400 M⁻¹ s⁻¹; EC50 for CD4+ T cell proliferation (pM), mixed lymphocyte reaction [5]: 365 pM; EC50 for CD8+ T cell proliferation (pM), mixed lymphocyte reaction [5]: 3670 pM; EC50 for IFN gamma production (pM), mixed lymphocyte reaction [5]: 2220 pM; IC50 [6]: 0.305 nM
B3	0.974	1.12	3	–	–	–	–
B4	1.01	1.48	3.13	–	–	–	–
B5	0.39	0.449	2.69	–	–	–	–
B6	0.398	0.416	2.45	–	–	–	–
B7	–	–	–	20.5	9.1	0.276	–
B8	–	–	–	10.9	19.8	0.217	–
B9	–	–	–	25.3	15.7	0.473	–
B10	–	–	–	30	14.1	0.437	–
B11	–	–	–	> 340	3.5	3.1	–
B12	–	–	–	28.2	6.3	0.697	–
B13	–	–	–	> 340	11.5	2.93	–
B14	–	–	–	73.8	8.2	0.189	–
B15	–	–	–	13.9	3.5	0.15	–
B16	–	–	–	19	3.8	0.384	–
